Experimental findings from article PMC7491322, “Molecular basis for the distinct cellular functions of the Lsm1–7 and Lsm2–8 complexes” (RNA, 2020) are described below.

B1: S. pombe Lsm6 (natural protein, UniProt Q9UUI1 1-75, looked up)
chain: MDSSPNEFLNKVIGKKVLIRLSSGVDYKGILSCLDGYMNLALERTEEYVNGKKTNVYGDAFIRGNNVLYVSALDD
notes: Lsm6, S. pombe, codon-optimised open reading frame; source: E. coli BL21(DE3) STAR pLysS, coexpressed with the other Lsm proteins, purified as part of the Lsm2–8 or Lsm1–7 complex; not shown: MBP, N-terminal, cleaved
B2: S. pombe Lsm3 (natural protein)
chain: not shown
notes: Lsm3, S. pombe, codon-optimised open reading frame; TEV site between GST and Lsm3; The complex was held through the GST on Lsm3 on glutathione agarose during the purification; TEV protease was added to the eluate before the later steps and the crystallisation; source: E. coli BL21(DE3) STAR pLysS, coexpressed with the other Lsm proteins, purified as part of the Lsm2–8 or Lsm1–7 complex; not …
B3: S. pombe Lsm8 (natural protein, UniProt O74483 2-94, looked up)
chain: SLADFMEQRVQVITNDGRVVLGSLKGFDHTTNLILSDSFERIISMDQDMETIPLGVYLLRGENVAMVGLVNEELDSEIEWTKIRGEAIPDVVH
notes: Lsm8, S. pombe, codon-optimised open reading frame, no purification tag; amino-terminal methionine missing by ESI-MS; source: E. coli BL21(DE3) STAR pLysS, coexpressed with the other Lsm proteins, purified as part of the Lsm2–8 complex

Common to all, as to details: both partners purified
For assay [1], the target named is B2. Nature of the assay: crystal structure; Lsm1_(Δ56C)–7 ring with UUUUUA (1.8 Å) or AUUUUG (2.1 Å); 10% PEG 8000, 20% ethylene glycol, HEPES/MOPS.
Another assay deals with T1, S. pombe Lsm5 (S. pombe, UniProt O42978 2-80).
T1 construct: Lsm5, S. pombe, codon-optimised open reading frame, no purification tag; amino-terminal methionine missing by ESI-MS; source: E. coli BL21(DE3) STAR pLysS, coexpressed with the other Lsm proteins, purified as part of the Lsm2–8 or Lsm1–7 complex
The description is as above.

Assay [2] has as its target T2, S. pombe Lsm2 (S. pombe, UniProt O94408 1-96).
T2 construct: Lsm2, S. pombe, codon-optimised open reading frame, no purification tag; source: E. coli BL21(DE3) STAR pLysS, coexpressed with the other Lsm proteins, purified as part of the Lsm2–8 or Lsm1–7 complex
T2 sequence (looked up): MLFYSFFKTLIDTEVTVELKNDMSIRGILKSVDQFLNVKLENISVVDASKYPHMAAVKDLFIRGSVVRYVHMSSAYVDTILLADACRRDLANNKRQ
The assay is described as above.

Assay [3] concerns the target T2, S. pombe Lsm2. Kind of assay: crystal structure; Lsm2–8 ring with UUUUU-3′-OH (1.9 Å) or UUUUU>p (2.3 Å); hanging drop, 16°C, 100–200 mM KCl, 50–100 mM HEPES pH 7.4, 35% pentaerythritol propoxylate.
For another assay, the target named is T3, S. pombe Lsm4 (S. pombe, UniProt O14352 1-121).
T3 construct: Lsm4, S. pombe, codon-optimised open reading frame; noncleavable tag; source: E. coli BL21(DE3) STAR pLysS, coexpressed with the other Lsm proteins, purified as part of the Lsm2–8 or Lsm1–7 complex; not shown: Strep-II, C-terminal, kept
T3 sequence (looked up): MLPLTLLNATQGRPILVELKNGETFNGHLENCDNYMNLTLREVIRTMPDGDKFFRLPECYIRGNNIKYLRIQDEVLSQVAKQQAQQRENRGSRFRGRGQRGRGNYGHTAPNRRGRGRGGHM
Described as above.

Assay [4] addresses B2. The assay is described as above.

S. pombe Lsm3, sequence (Q9Y7M4 whole entry): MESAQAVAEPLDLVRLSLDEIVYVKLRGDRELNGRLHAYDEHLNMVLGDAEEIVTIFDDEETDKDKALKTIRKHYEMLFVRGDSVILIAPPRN
T1 sequence (O42978 2-80): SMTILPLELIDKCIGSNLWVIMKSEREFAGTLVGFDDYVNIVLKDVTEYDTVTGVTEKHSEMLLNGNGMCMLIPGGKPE

On to B1, for which the binding result with S. pombe Lsm3 [1] and with S. pombe Lsm5 was “binds” throughout.

As to B2, the binding result in the assay with S. pombe Lsm2 [2] was “binds”.

As to B3, the binding result with S. pombe Lsm2 [3], with S. pombe Lsm4 and with S. pombe Lsm3 [4] was “binds” each time.
